Test results: PMC5255556, “mTORC1 phosphorylates LARP6 to stimulate type I collagen expression” (Scientific Reports, 2017)
Positions count from the first letter of the chain named.

Key:
[1] = biological target: T1, wt HA-LARP6 (La ribonucleoprotein domain family, member 6), full length (UniProt Q9BRS8 1-491); assay: co-IP; HLFs transduced with HA-LARP6 adenovirus; lysate in 50 mM Tris-HCl pH 7.5, 150 mM NaCl, 0.5% NP-40, 1 mM DTT; IP with anti-HA antibody 3 h at 4 °C, protein A/G-agarose, blot with anti-STRAP; cells untreated, treated with rapamycin, or with raptor knockdown (shRNA); settings: partners not purified
T1 construct: LARP6 (La ribonucleoprotein domain family, member 6), full-length, re-cloned from pcDNA3 into pAd-CMV-Track; In cells the protein is a mixture of phosphorylated isoforms; The construct is described in earlier work of the authors; also called wt LARP6; FL HA-LARP6; source: HLFs (human lung fibroblasts), adenovirus-transduced, in lysate or in lysed microsomal fraction
T1 sequence (looked up): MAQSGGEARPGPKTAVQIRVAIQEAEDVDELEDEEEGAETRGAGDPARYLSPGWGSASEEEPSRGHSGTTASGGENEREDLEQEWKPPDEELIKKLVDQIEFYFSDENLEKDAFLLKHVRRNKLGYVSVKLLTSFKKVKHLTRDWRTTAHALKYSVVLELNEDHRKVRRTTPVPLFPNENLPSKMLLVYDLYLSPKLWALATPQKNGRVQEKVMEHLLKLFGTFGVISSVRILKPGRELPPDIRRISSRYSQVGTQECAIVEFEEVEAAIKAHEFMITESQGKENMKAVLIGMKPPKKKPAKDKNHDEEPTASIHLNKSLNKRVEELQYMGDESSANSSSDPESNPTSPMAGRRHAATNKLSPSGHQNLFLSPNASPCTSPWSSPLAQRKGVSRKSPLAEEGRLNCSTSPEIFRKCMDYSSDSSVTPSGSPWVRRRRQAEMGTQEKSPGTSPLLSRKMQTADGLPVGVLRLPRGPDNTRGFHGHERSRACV

[2] = biological target: T2, HA-LARP6 S348A/S409A mutant, full length (UniProt Q9BRS8 1-491, S348A | S409A); assay: as above; settings: partners not purified
T2 construct: LARP6 (La ribonucleoprotein domain family, member 6), full-length, with S348A and S409A; Made by QuickChange site-directed mutagenesis; expressed from adenovirus; source: HLFs (human lung fibroblasts), adenovirus-transduced, in lysate or in lysed microsomal fraction
T2 sequence (looked up): T1 sequence (looked up) with S348A, S409A

B1: serine-threonine kinase receptor-associated protein (STRAP) (natural protein, human (endogenous in HLFs), UniProt Q9Y3F4 1-350, looked up)
chain: MAMRQTPLTCSGHTRPVVDLAFSGITPYGYFLISACKDGKPMLRQGDTGDWIGTFLGHKGAVWGATLNKDATKAATAAADFTAKVWDAVSGDELMTLAHKHIVKTVDFTQDSNYLLTGGQDKLLRIYDLNKPEAEPKEISGHTSGIKKALWCSEDKQILSADDKTVRLWDHATMTEVKSLNFNMSVSSMEYIPEGEILVITYGRSIAFHSAVSLDPIKSFEAPATINSASLHPEKEFLVAGGEDFKLYKYDYNSGEELESYKGHFGPIHCVRFSPDGELYASGSEDGTLRLWQTVVGKTYGLWKCVLPEEDSGELAKPKIGFPETTEEELEEIASENSDCIFPSAPDVKA
notes: STRAP, serine-threonine kinase receptor-associated protein, endogenous in human lung fibroblasts, detected with anti-STRAP antibody; source: endogenous, HLF lysate
fraction of STRAP pulled down after rapamycin relative to untreated cells [1]: ~0.33 fraction of untreated
STRAP pulled down relative to wt HA-LARP6 [2]: ~50 % less than wt HA-LARP6
